Experimental data as given in article PMC9371926 (Nucleic Acids Research, 2022).

T1: Methanocaldococcus jannaschii (Mja) RPP30 (Methanocaldococcus jannaschii, UniProt Q58539 1-232)
T1 sequence: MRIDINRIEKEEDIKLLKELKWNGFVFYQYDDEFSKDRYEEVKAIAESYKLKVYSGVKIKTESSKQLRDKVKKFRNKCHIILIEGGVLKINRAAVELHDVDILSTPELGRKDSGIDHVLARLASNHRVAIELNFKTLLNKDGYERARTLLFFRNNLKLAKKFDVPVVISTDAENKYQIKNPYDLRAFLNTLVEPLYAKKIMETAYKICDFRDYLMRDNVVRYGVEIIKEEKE

T2: Methanocaldococcus jannaschii (Mja) RPP21 (Methanocaldococcus jannaschii, UniProt Q58372 1-128)
T2 sequence: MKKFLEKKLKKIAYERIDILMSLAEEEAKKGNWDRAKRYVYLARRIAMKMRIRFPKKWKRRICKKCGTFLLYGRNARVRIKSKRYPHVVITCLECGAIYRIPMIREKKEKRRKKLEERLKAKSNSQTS


Assays:
Assay in all cases: native MS
[1] = molecular target: T1, Methanocaldococcus jannaschii (Mja) …
[2] = molecular target: the molecule itself
[3] = molecular target: T2, Methanocaldococcus jannaschii (Mja) …

| Binder | binding result [2] | also measured |
| --- | --- | --- |
| Methanocaldococcus jannaschii (Mja) POP5 (natural protein) MIEMLKTLPPTLREKKRYIAFKILYDEELKEGEVVNLIRKAVLEYYGSWGTSKANPWLVYYDFPYGILRCQRDNVDYVKASLILIREFKEKPVNIICLGVSGTIRKAKIKFLGIKKPKRWFVIRRERLKAKKQK |  | binding result [1]: binds |
| Mja POP5·RPP30 binary complex (complex, Methanocaldococcus jannaschii) chain 1: MIEMLKTLPPTLREKKRYIAFKILYDEELKEGEVVNLIRKAVLEYYGSWGTSKANPWLVYYDFPYGILRCQRDNVDYVKASLILIREFKEKPVNIICLGVSGTIRKAKIKFLGIKKPKRWFVIRRERLKAKKQK chain 2: MRIDINRIEKEEDIKLLKELKWNGFVFYQYDDEFSKDRYEEVKAIAESYKLKVYSGVKIKTESSKQLRDKVKKFRNKCHIILIEGGVLKINRAAVELHDVDILSTPELGRKDSGIDHVLARLASNHRVAIELNFKTLLNKDGYERARTLLFFRNNLKLAKKFDVPVVISTDAENKYQIKNPYDLRAFLNTLVEPLYAKKIMETAYKICDFRDYLMRDNVVRYGVEIIKEEKE | binds |  |
| Methanocaldococcus jannaschii (Mja) RPP29 (natural protein) MITPHNILRHELIGLKVEIVEAKNKAMIGIKGKVVDETRNTLVIEKEDGREVVIPKDIAVFLFQLKGCKVKVDGRLLIGRPEERLKKKIKILYPY |  | binding result [3]: binds |
| Mja RPP21·RPP29 binary complex (complex, Methanocaldococcus jannaschii) chain 1: MKKFLEKKLKKIAYERIDILMSLAEEEAKKGNWDRAKRYVYLARRIAMKMRIRFPKKWKRRICKKCGTFLLYGRNARVRIKSKRYPHVVITCLECGAIYRIPMIREKKEKRRKKLEERLKAKSNSQTS chain 2: MITPHNILRHELIGLKVEIVEAKNKAMIGIKGKVVDETRNTLVIEKEDGREVVIPKDIAVFLFQLKGCKVKVDGRLLIGRPEERLKKKIKILYPY | binds |  |
